# Test results reported in patent publication US20040072742A1 (Takeda / Millennium, published 2004).
# T1: full-length MD36 (SEQ ID NO:1) fused to yeast GAL4 transcription activated domain protein (yeast; human, UniProt Q9Y613 1-1164, limits assumed)
# T1 construct: also called pACT-MD36; IRAP-BP protein
# T1 sequence: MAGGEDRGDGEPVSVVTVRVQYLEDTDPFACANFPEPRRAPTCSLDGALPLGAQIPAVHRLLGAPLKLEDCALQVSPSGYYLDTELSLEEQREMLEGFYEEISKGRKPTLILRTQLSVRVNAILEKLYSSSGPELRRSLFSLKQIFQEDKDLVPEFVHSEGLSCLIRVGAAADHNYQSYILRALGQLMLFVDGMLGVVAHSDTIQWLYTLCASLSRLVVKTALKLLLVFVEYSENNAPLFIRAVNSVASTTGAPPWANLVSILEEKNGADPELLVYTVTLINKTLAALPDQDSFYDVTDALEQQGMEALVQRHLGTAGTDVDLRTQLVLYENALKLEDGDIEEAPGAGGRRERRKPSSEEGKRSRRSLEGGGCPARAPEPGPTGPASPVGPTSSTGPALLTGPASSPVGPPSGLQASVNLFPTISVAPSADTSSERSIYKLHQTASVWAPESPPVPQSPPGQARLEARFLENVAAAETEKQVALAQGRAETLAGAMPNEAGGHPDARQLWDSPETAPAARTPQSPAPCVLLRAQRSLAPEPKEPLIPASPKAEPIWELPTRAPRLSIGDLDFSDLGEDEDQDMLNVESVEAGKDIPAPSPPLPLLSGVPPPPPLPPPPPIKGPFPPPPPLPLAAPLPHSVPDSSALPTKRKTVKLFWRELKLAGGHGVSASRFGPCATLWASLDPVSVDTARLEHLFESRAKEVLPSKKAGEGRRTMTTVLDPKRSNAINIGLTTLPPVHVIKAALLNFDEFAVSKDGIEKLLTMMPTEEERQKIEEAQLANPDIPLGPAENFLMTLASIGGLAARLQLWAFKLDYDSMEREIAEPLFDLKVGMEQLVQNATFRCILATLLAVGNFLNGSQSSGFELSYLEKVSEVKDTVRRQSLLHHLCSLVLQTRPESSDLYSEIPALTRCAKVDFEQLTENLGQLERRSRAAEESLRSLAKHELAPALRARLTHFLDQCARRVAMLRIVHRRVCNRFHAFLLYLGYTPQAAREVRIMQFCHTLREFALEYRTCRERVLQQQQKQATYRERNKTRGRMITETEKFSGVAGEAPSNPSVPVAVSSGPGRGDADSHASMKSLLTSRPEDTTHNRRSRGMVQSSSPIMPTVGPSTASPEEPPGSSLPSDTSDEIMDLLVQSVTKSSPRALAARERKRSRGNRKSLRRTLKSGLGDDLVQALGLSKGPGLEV
# T2: MD36NT (MD36 from the N terminus to the proline-rich domain, SEQ ID NO:33) fused to yeast GAL4 transcription … (yeast; human, UniProt Q9Y613 1-640, limits assumed)
# T2 construct: also called pACT-MD36NT
# T2 sequence: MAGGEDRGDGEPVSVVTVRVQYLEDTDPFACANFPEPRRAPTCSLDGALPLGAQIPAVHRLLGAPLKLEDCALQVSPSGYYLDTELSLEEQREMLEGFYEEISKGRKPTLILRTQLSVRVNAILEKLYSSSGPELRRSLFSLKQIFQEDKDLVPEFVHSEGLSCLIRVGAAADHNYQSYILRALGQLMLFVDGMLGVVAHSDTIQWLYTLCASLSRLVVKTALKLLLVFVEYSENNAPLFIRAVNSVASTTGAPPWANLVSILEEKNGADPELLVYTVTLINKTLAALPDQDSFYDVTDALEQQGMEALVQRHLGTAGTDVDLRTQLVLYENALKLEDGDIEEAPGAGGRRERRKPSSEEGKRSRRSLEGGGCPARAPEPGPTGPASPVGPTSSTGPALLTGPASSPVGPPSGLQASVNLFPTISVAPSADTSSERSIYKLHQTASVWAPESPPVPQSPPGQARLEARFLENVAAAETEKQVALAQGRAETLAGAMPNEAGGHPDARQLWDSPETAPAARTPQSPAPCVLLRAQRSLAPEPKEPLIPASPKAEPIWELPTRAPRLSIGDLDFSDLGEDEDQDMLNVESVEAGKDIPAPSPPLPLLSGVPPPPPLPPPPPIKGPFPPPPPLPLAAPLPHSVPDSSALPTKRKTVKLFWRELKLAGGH
# Assays:
# [1] = biological target: T1, full-length MD36 (SEQ ID NO:1) fused to …; test: yeast two-hybrid, HIS3 reporter growth
# Text: (§1) The protein-protein interaction between MD36 and the profilin family was detected by the yeast two-hybrid system. Based on pGBT9 (CLONTECH), expression plasmids were constructed to express the coding regions of profiling I (Evangelista et al., Science, 276, 118-122, 1997; Imamura et al., EMBO J., 16, 2745-2755, 1997; Tanaka, Biochem. Biophys. Res. Commun., 267, 479-481, 2000), profilin II (Schluter et al., Biohim. Biophys. Acta, 1359, 97-109, 1997), and profiling IIL in the form fused to yeast GAL4-DNA-binding domain protein under control of yeast ADH1 promoter. These plasmids were named pG-PFNI, pG-PFNII and pG-PFNIII, respectively (yeast selection marker was TRP1). On the other hand, expression plasmids that express the full-length sequence (SEQ ID NO:1) of MD36, which is IRAP-BP protein, or the coding region from this N-terminus to the sequence (SEQ ID NO:33) including the proline-rich domain in the form fused to yeast […] activated domain protein under control of yeast ADH1 promoter was constructed based on pACT2 (CLONTECH), and named pACT-MD36 and pACT-MD36NT, respectively (yeast selection marker was LEU2). pG-PFNI, pG-PFNII, pG-PFNIII or, pGBT9 for control was co-transfected to yeast Saccharomyces cerevisiae Y190 together with pACT-MD36 or pACT-MD36NT, and yeast strains bearing plasmids from the two were selected on SD medium free of tryptophan and leucine. […]
# [2] = biological target: T2, MD36NT (MD36 from the N terminus to the …); test: yeast two-hybrid, HIS3 reporter growth
# Text: as §1
# [3] = biological target: T1, full-length MD36 (SEQ ID NO:1) fused to …; test: yeast two-hybrid, HIS3 reporter growth on histidine-free medium
# Text: as §1
# [4] = biological target: T2, MD36NT (MD36 from the N terminus to the …); test: as above
# Text: as §1
Binder,binding result [1],binding result [2],binding result [3],binding result [4]
"profilin IIL fused to yeast GAL4-DNA-binding domain protein (other, Profilin IIL was cloned from human skeletal muscle-derived cDNA; also called PFN IIL) MKLLSSIEQACDICRLKKLKCSKEKPKCAKCLKNNWECRYSPKTKRSPLTRAHLTEVESRLERLEQLFLLIFPREDLDMILKMDSLQDIKALLTGLFVQDNVNKDAVTDRLASVETDMPLTLRQHRISATSSSEESSNKGQRQLTVSMAGWQSYVDNLMCDGCCQEAAIVGYCDAKYVWAATAGGVFQSITPIEIDMIVGKDREGFFTNGLTLGAKKCSVIRDSLYVDGDCTMDIRTKSQGGEPTYNVAVGRAGRVLVFVMGKEGVHGGGLNKKAYSMAKYLRDSGF",binds,binds,,
"profilin II fused to yeast GAL4-DNA-binding domain protein (other, also called PFN II; pG-PFNII) MKLLSSIEQACDICRLKKLKCSKEKPKCAKCLKNNWECRYSPKTKRSPLTRAHLTEVESRLERLEQLFLLIFPREDLDMILKMDSLQDIKALLTGLFVQDNVNKDAVTDRLASVETDMPLTLRQHRISATSSSEESSNKGQRQLTVSAGWQSYVDNLMCDGCCQEAAIVGYCDAKYVWAATAGGVFQSITPIEIDMIVGKDREGFFTNGLTLGAKKCSVIRDSLYVDGDCTMDIRTKSQGGEPTYNVAVGRAGRALVIVMGKEGVHGGTLNKKAYELALYLRRSDV",,,no binding,no binding
